Test results published in PMC314469, “Protein Interaction Networks by Proteome Peptide Scanning” (PLoS Biology, 2004).

Key:
Test in all cases: SPOT array
[1] = molecular target: T1, Boi1 SH3 (BOI1_YEAST), P38041
T1 chain: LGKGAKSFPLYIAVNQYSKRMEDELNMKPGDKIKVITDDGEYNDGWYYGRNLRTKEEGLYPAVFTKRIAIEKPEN

[2] = molecular target: T2, Yfr024 SH3 (LSB3_YEAST), P43603
T2 chain: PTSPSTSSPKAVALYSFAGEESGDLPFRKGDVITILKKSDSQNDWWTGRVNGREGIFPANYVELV

[3] = molecular target: T3, Rvs167 SH3 (RV167_YEAST), P39743
T3 chain: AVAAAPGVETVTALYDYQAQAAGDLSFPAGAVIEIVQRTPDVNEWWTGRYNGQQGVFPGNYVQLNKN

[4] = molecular target: T4, Boi2 SH3 (BOI2_YEAST), P39969
T4 chain: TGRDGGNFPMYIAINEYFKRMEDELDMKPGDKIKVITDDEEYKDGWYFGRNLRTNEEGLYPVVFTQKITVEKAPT

[5] = molecular target: T5, Yhr016c SH3 (YSC84_YEAST), P32793
T5 chain: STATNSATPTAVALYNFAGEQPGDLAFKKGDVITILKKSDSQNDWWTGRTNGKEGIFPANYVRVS

Binder | normalised SPOT signal, Boehringer light units (BLU); mean over the file's lines of this peptide [1] | normalised SPOT signal, Boehringer light units (BLU); mean over the file's lines of this peptide [2] | normalised SPOT signal, Boehringer light units (BLU); mean over the file's lines of this peptide [3] | normalised SPOT signal, Boehringer light units (BLU); mean over the file's lines of this peptide [4] | normalised SPOT signal, Boehringer light units (BLU); mean over the file's lines of this peptide [5]
PKDPSSPQRDEILT [YBR271W 27-40] | 138 | 6.2 | 53.2 | 156 | 0
NVQPRKPSRVHSRN [YFR022W 634-647] | 899 | 19900 | 1900 | 1310 | 5260
PLPPIPPTKSKTSP [YHL007C 535-548] | 80.6 | 504 | 30.2 | 21 | 140
PLQPRPPVKPLSKQ [YGR084C 87-100] | 91.7 | 861 | 57.3 | 34.5 | 128
PIMPTLPPRPYITI [YGL060W 537-550] | 31.6 | 26100 | 5510 | 87.6 | 24900
PAFPEYPMRRDTLY [YMR058W 448-461] | 3190 | 5040 | 57.6 | 82.5 | 1930
PMSPGPPSKKDSRH [YJL005W 495-508] | 127 | 996 | 138 | 147 | 178
PNEPGAPSRLSFEN [YBL067C 285-298] | 104 | 34.7 | 52.4 | 71.5 | 258
PIQPQEPFRHNTTI [YNL085W 152-165] | 104 | 60.6 | 20.4 | 7.9 | 52.8
NYAPRLPRRETSSS [YIL061C 231-244] | 3860 | 29100 | 28000 | 4640 | 50300
NYIPPDPPKDIQLN [YBR216C 239-252] | 182 | 254 | 176 | 40.9 | 79.4
NYQPKPPIREGNGP [YLR213C 97-110] | 43.5 | 114 | 79.4 | 53.8 | 156
PASPTPPYRSRETE [YLR457C 288-301] | 51.2 | 933 | 13.1 | 31 | 729
PIVPREPLRNEPTD [YPL255W 118-131] | 628 | 7410 | 34500 | 33300 | 5170
NTVPSTPSRSNSVL [YKL038W 137-150] | 45.3 | 26300 | 387 | 46.6 | 9290
NVDPASPWRHELLS [YGL107C 76-89] | 72.9 | 63 | 33.4 | 8.5 | 271
PKEPRLPKRKVAVM [YPL212C 67-80] | 227 | 38000 | 5510 | 28.3 | 39200
PLIPDNPGRLLSSK [YEL023C 311-324] | 94.5 | 200 | 42.7 | 48.5 | 205
NWSPNIPLRYSDFA [YOL017W 129-142] | 1070 | 3720 | 189 | 574 | 1410
PFIPKFPSRESVES [YBR036C 302-315] | 39.7 | 2600 | 506 | 70.4 | 1410
PFLPKIPQKPGGVS [YLR164W 27-40] | 80.5 | 2200 | 50.1 | 45.9 | 173
PFLPVLPQKPGGVR [YDR178W 35-48] | 49.9 | 12700 | 20 | 35.7 | 338
